Experimental data reported in the RNAGym collection of RNA variant scans (doi:10.1021/acssynbio.7b00057).

B1: Pistol ribozyme (parent)
chain: GGGUCGUUGUUCCAUAAUCGCGUGGAUAUGGCACGCAAGUUUCUACCGGGCACCGUAAAUGUCCGACUGGAGCCGUUCGGGCGGCUAUAAACAGACCUCAGGCCCGAAGCGUGGCGGCACCUGCCGCCGGUGGUAAAAAAGAUCGGAAGAGCACACGUCU

Variants of: B1
Test: aptazyme ON/OFF ratio, guanine; higher = stronger switching; co-transcriptional cleavage with and without guanine

Row | Variant | aptazyme ON/OFF ratio
1 | GGGUCGGACUCCCAUAAUCGCGUGGAUAUGGCACGCAAGUUUCUACCGGGCACCGUAAAUGUCCGACUGGAGCCGUUCGGGCGGCUAUAAACAGACCUCAGGCCCGAAGCGUGGCGGCACCUGCCGCCGGUGGUAAAAAAGAUCGGAAGAGCACACGUCU [U7G U8A G9C U11C] | 1.05
2 | GGGUCGGACUGCCAUAAUCGCGUGGAUAUGGCACGCAAGUUUCUACCGGGCACCGUAAAUGUCCGACUGGAGCCGUUCGGGCGGCUAUAAACAGACCUCAGGCCCGAAGCGUGGCGGCACCUGCCGCCGGUGGUAAAAAAGAUCGGAAGAGCACACGUCU [U7G U8A G9C U11G] | 1.04
3 | GGGUCGGACUAUCAUAAUCGCGUGGAUAUGGCACGCAAGUUUCUACCGGGCACCGUAAAUGUCCGACUGGAGCCGUUCGGGCGGCUAUAAACAGACCUCAGGCCCGAAGCGUGGCGGCACCUGCCGCCGGUGGUAAAAAAGAUCGGAAGAGCACACGUCU [U7G U8A G9C U11A C12U] | 1.03
4 | GGGUCGGACUAGCAUAAUCGCGUGGAUAUGGCACGCAAGUUUCUACCGGGCACCGUAAAUGUCCGACUGGAGCCGUUCGGGCGGCUAUAAACAGACCUCAGGCCCGAAGCGUGGCGGCACCUGCCGCCGGUGGUAAAAAAGAUCGGAAGAGCACACGUCU [U7G U8A G9C U11A C12G] | 1.04
5 | GGGUCGGACUAUUAUAAUCGCGUGGAUAUGGCACGCAAGUUUCUACCGGGCACCGUAAAUGUCCGACUGGAGCCGUUCGGGCGGCUAUAAACAGACCUCAGGCCCGAAGCGUGGCGGCACCUGCCGCCGGUGGUAAAAAAGAUCGGAAGAGCACACGUCU [U7G U8A G9C U11A C12U C13U] | 1.02
6 | GGGUCGGACUAUAAUAAUCGCGUGGAUAUGGCACGCAAGUUUCUACCGGGCACCGUAAAUGUCCGACUGGAGCCGUUCGGGCGGCUAUAAACAGACCUCAGGCCCGAAGCGUGGCGGCACCUGCCGCCGGUGGUAAAAAAGAUCGGAAGAGCACACGUCU [U7G U8A G9C U11A C12U C13A] | 1.03
7 | GGGUCGGACUAUGAUAAUCGCGUGGAUAUGGCACGCAAGUUUCUACCGGGCACCGUAAAUGUCCGACUGGAGCCGUUCGGGCGGCUAUAAACAGACCUCAGGCCCGAAGCGUGGCGGCACCUGCCGCCGGUGGUAAAAAAGAUCGGAAGAGCACACGUCU [U7G U8A G9C U11A C12U C13G] | 1.03
8 | GGGUCGGACUGGUAUAAUCGCGUGGAUAUGGCACGCAAGUUUCUACCGGGCACCGUAAAUGUCCGACUGGAGCCGUUCGGGCGGCUAUAAACAGACCUCAGGCCCGAAGCGUGGCGGCACCUGCCGCCGGUGGUAAAAAAGAUCGGAAGAGCACACGUCU [U7G U8A G9C U11G C12G C13U] | 1.03
9 | GGGUCGGACUGGAAUAAUCGCGUGGAUAUGGCACGCAAGUUUCUACCGGGCACCGUAAAUGUCCGACUGGAGCCGUUCGGGCGGCUAUAAACAGACCUCAGGCCCGAAGCGUGGCGGCACCUGCCGCCGGUGGUAAAAAAGAUCGGAAGAGCACACGUCU [U7G U8A G9C U11G C12G C13A] | 1.01
10 | GGGUCGGACUGGGAUAAUCGCGUGGAUAUGGCACGCAAGUUUCUACCGGGCACCGUAAAUGUCCGACUGGAGCCGUUCGGGCGGCUAUAAACAGACCUCAGGCCCGAAGCGUGGCGGCACCUGCCGCCGGUGGUAAAAAAGAUCGGAAGAGCACACGUCU [U7G U8A G9C U11G C12G C13G] | 1.03
11 | GGGUCGGACUCGUAUAAUCGCGUGGAUAUGGCACGCAAGUUUCUACCGGGCACCGUAAAUGUCCGACUGGAGCCGUUCGGGCGGCUAUAAACAGACCUCAGGCCCGAAGCGUGGCGGCACCUGCCGCCGGUGGUAAAAAAGAUCGGAAGAGCACACGUCU [U7G U8A G9C U11C C12G C13U] | 1.04
12 | GGGUCGGACUCGAAUAAUCGCGUGGAUAUGGCACGCAAGUUUCUACCGGGCACCGUAAAUGUCCGACUGGAGCCGUUCGGGCGGCUAUAAACAGACCUCAGGCCCGAAGCGUGGCGGCACCUGCCGCCGGUGGUAAAAAAGAUCGGAAGAGCACACGUCU [U7G U8A G9C U11C C12G C13A] | 1.02
13 | GGGUCGGACUCGGAUAAUCGCGUGGAUAUGGCACGCAAGUUUCUACCGGGCACCGUAAAUGUCCGACUGGAGCCGUUCGGGCGGCUAUAAACAGACCUCAGGCCCGAAGCGUGGCGGCACCUGCCGCCGGUGGUAAAAAAGAUCGGAAGAGCACACGUCU [U7G U8A G9C U11C C12G C13G] | 1.03
14 | GGGUCGGACUCUCAUAAUCGCGUGGAUAUGGCACGCAAGUUUCUACCGGGCACCGUAAAUGUCCGACUGGAGCCGUUCGGGCGGCUAUAAACAGACCUCAGGCCCGAAGCGUGGCGGCACCUGCCGCCGGUGGUAAAAAAGAUCGGAAGAGCACACGUCU [U7G U8A G9C U11C C12U] | 1.11
15 | GGGUCGGACUCACAUAAUCGCGUGGAUAUGGCACGCAAGUUUCUACCGGGCACCGUAAAUGUCCGACUGGAGCCGUUCGGGCGGCUAUAAACAGACCUCAGGCCCGAAGCGUGGCGGCACCUGCCGCCGGUGGUAAAAAAGAUCGGAAGAGCACACGUCU [U7G U8A G9C U11C C12A] | 1.11
16 | GGGUCGGACUCGCAUAAUCGCGUGGAUAUGGCACGCAAGUUUCUACCGGGCACCGUAAAUGUCCGACUGGAGCCGUUCGGGCGGCUAUAAACAGACCUCAGGCCCGAAGCGUGGCGGCACCUGCCGCCGGUGGUAAAAAAGAUCGGAAGAGCACACGUCU [U7G U8A G9C U11C C12G] | 1.05
17 | GGGUCGGACUCUGAUAAUCGCGUGGAUAUGGCACGCAAGUUUCUACCGGGCACCGUAAAUGUCCGACUGGAGCCGUUCGGGCGGCUAUAAACAGACCUCAGGCCCGAAGCGUGGCGGCACCUGCCGCCGGUGGUAAAAAAGAUCGGAAGAGCACACGUCU [U7G U8A G9C U11C C12U C13G] | 1.08
18 | GGGUCGGACUCUAAUAAUCGCGUGGAUAUGGCACGCAAGUUUCUACCGGGCACCGUAAAUGUCCGACUGGAGCCGUUCGGGCGGCUAUAAACAGACCUCAGGCCCGAAGCGUGGCGGCACCUGCCGCCGGUGGUAAAAAAGAUCGGAAGAGCACACGUCU [U7G U8A G9C U11C C12U C13A] | 1.06

Row | Variant | aptazyme ON/OFF ratio
19 | GGGUCGGACUCUUAUAAUCGCGUGGAUAUGGCACGCAAGUUUCUACCGGGCACCGUAAAUGUCCGACUGGAGCCGUUCGGGCGGCUAUAAACAGACCUCAGGCCCGAAGCGUGGCGGCACCUGCCGCCGGUGGUAAAAAAGAUCGGAAGAGCACACGUCU [U7G U8A G9C U11C C12U C13U] | 1.03
20 | GGGUCGGACUACGAUAAUCGCGUGGAUAUGGCACGCAAGUUUCUACCGGGCACCGUAAAUGUCCGACUGGAGCCGUUCGGGCGGCUAUAAACAGACCUCAGGCCCGAAGCGUGGCGGCACCUGCCGCCGGUGGUAAAAAAGAUCGGAAGAGCACACGUCU [U7G U8A G9C U11A C13G] | 1.02
21 | GGGUCGGACUACAAUAAUCGCGUGGAUAUGGCACGCAAGUUUCUACCGGGCACCGUAAAUGUCCGACUGGAGCCGUUCGGGCGGCUAUAAACAGACCUCAGGCCCGAAGCGUGGCGGCACCUGCCGCCGGUGGUAAAAAAGAUCGGAAGAGCACACGUCU [U7G U8A G9C U11A C13A] | 1.05
22 | GGGUCGGACUACUAUAAUCGCGUGGAUAUGGCACGCAAGUUUCUACCGGGCACCGUAAAUGUCCGACUGGAGCCGUUCGGGCGGCUAUAAACAGACCUCAGGCCCGAAGCGUGGCGGCACCUGCCGCCGGUGGUAAAAAAGAUCGGAAGAGCACACGUCU [U7G U8A G9C U11A C13U] | 1.04
23 | GGGUCGGACUCCGAUAAUCGCGUGGAUAUGGCACGCAAGUUUCUACCGGGCACCGUAAAUGUCCGACUGGAGCCGUUCGGGCGGCUAUAAACAGACCUCAGGCCCGAAGCGUGGCGGCACCUGCCGCCGGUGGUAAAAAAGAUCGGAAGAGCACACGUCU [U7G U8A G9C U11C C13G] | 1.05
24 | GGGUCGGACUCCAAUAAUCGCGUGGAUAUGGCACGCAAGUUUCUACCGGGCACCGUAAAUGUCCGACUGGAGCCGUUCGGGCGGCUAUAAACAGACCUCAGGCCCGAAGCGUGGCGGCACCUGCCGCCGGUGGUAAAAAAGAUCGGAAGAGCACACGUCU [U7G U8A G9C U11C C13A] | 1.06
25 | GGGUCGGACUCCUAUAAUCGCGUGGAUAUGGCACGCAAGUUUCUACCGGGCACCGUAAAUGUCCGACUGGAGCCGUUCGGGCGGCUAUAAACAGACCUCAGGCCCGAAGCGUGGCGGCACCUGCCGCCGGUGGUAAAAAAGAUCGGAAGAGCACACGUCU [U7G U8A G9C U11C C13U] | 1.05
26 | GGGUCGGACUAGUAUAAUCGCGUGGAUAUGGCACGCAAGUUUCUACCGGGCACCGUAAAUGUCCGACUGGAGCCGUUCGGGCGGCUAUAAACAGACCUCAGGCCCGAAGCGUGGCGGCACCUGCCGCCGGUGGUAAAAAAGAUCGGAAGAGCACACGUCU [U7G U8A G9C U11A C12G C13U] | 1.04
27 | GGGUCGGACUAGAAUAAUCGCGUGGAUAUGGCACGCAAGUUUCUACCGGGCACCGUAAAUGUCCGACUGGAGCCGUUCGGGCGGCUAUAAACAGACCUCAGGCCCGAAGCGUGGCGGCACCUGCCGCCGGUGGUAAAAAAGAUCGGAAGAGCACACGUCU [U7G U8A G9C U11A C12G C13A] | 1.04
28 | GGGUCGGACUAGGAUAAUCGCGUGGAUAUGGCACGCAAGUUUCUACCGGGCACCGUAAAUGUCCGACUGGAGCCGUUCGGGCGGCUAUAAACAGACCUCAGGCCCGAAGCGUGGCGGCACCUGCCGCCGGUGGUAAAAAAGAUCGGAAGAGCACACGUCU [U7G U8A G9C U11A C12G C13G] | 1
29 | GGGUCGGACUGAAAUAAUCGCGUGGAUAUGGCACGCAAGUUUCUACCGGGCACCGUAAAUGUCCGACUGGAGCCGUUCGGGCGGCUAUAAACAGACCUCAGGCCCGAAGCGUGGCGGCACCUGCCGCCGGUGGUAAAAAAGAUCGGAAGAGCACACGUCU [U7G U8A G9C U11G C12A C13A] | 1.05
30 | GGGUCGGACUGAUAUAAUCGCGUGGAUAUGGCACGCAAGUUUCUACCGGGCACCGUAAAUGUCCGACUGGAGCCGUUCGGGCGGCUAUAAACAGACCUCAGGCCCGAAGCGUGGCGGCACCUGCCGCCGGUGGUAAAAAAGAUCGGAAGAGCACACGUCU [U7G U8A G9C U11G C12A C13U] | 1.06
31 | GGGUCGGACUGAGAUAAUCGCGUGGAUAUGGCACGCAAGUUUCUACCGGGCACCGUAAAUGUCCGACUGGAGCCGUUCGGGCGGCUAUAAACAGACCUCAGGCCCGAAGCGUGGCGGCACCUGCCGCCGGUGGUAAAAAAGAUCGGAAGAGCACACGUCU [U7G U8A G9C U11G C12A C13G] | 1.06
32 | GGGUCGGACUGGCAUAAUCGCGUGGAUAUGGCACGCAAGUUUCUACCGGGCACCGUAAAUGUCCGACUGGAGCCGUUCGGGCGGCUAUAAACAGACCUCAGGCCCGAAGCGUGGCGGCACCUGCCGCCGGUGGUAAAAAAGAUCGGAAGAGCACACGUCU [U7G U8A G9C U11G C12G] | 1.04
33 | GGGUCGGACUGACAUAAUCGCGUGGAUAUGGCACGCAAGUUUCUACCGGGCACCGUAAAUGUCCGACUGGAGCCGUUCGGGCGGCUAUAAACAGACCUCAGGCCCGAAGCGUGGCGGCACCUGCCGCCGGUGGUAAAAAAGAUCGGAAGAGCACACGUCU [U7G U8A G9C U11G C12A] | 1.03
34 | GGGUCGGACUCAUAUAAUCGCGUGGAUAUGGCACGCAAGUUUCUACCGGGCACCGUAAAUGUCCGACUGGAGCCGUUCGGGCGGCUAUAAACAGACCUCAGGCCCGAAGCGUGGCGGCACCUGCCGCCGGUGGUAAAAAAGAUCGGAAGAGCACACGUCU [U7G U8A G9C U11C C12A C13U] | 1.06
35 | GGGUCGGACUCAGAUAAUCGCGUGGAUAUGGCACGCAAGUUUCUACCGGGCACCGUAAAUGUCCGACUGGAGCCGUUCGGGCGGCUAUAAACAGACCUCAGGCCCGAAGCGUGGCGGCACCUGCCGCCGGUGGUAAAAAAGAUCGGAAGAGCACACGUCU [U7G U8A G9C U11C C12A C13G] | 1.04
36 | GGGUCGGACUCAAAUAAUCGCGUGGAUAUGGCACGCAAGUUUCUACCGGGCACCGUAAAUGUCCGACUGGAGCCGUUCGGGCGGCUAUAAACAGACCUCAGGCCCGAAGCGUGGCGGCACCUGCCGCCGGUGGUAAAAAAGAUCGGAAGAGCACACGUCU [U7G U8A G9C U11C C12A C13A] | 1.04
